Data set [1] deals with the molecule itself. Description: sedimentation equilibrium AUC, self-association (tetramer), 25 C.
Data set [2] deals with the molecule itself. Description: sedimentation equilibrium AUC, self-association, monomer-n-mer fit, 25 C.
Data set [3] deals with the molecule itself. Description: AUC, self-association, monomer/dimer/tetramer model, dimer term, 25 C; dimer term of the monomer/dimer/tetramer model, 25 C.
Data set [4] deals with the molecule itself. Description: sedimentation equilibrium AUC, self-association (dimer), 25 C.
For data set [5], the target named is T1, human Lyn (residues 62-122) SH3 domain-GST fusion protein (human, UniProt P07948 62-122).
T1 construct: range 62-122; also called Lyn SH3
T1 sequence (P07948 62-122): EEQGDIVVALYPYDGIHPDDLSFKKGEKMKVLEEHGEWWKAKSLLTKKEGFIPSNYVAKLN
Description: fluorescence polarization, 50 nM labeled peptide, SH3-GST titrated. A general note: Fluorescence polarisation rises when a labelled molecule tumbles more slowly, as on binding a larger partner.

Data set [6] deals with T2, human Lck (residues 62-128) SH3 domain-GST fusion (human, UniProt P06239 62-128).
T2 construct: range 62-128; also called Lck SH3
T2 sequence (P06239 62-128): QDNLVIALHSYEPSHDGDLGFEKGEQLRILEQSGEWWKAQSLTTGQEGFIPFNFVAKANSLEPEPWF
The description is as above.

The target of data set [7] is T3, human Fyn (residues 81-142) SH3 domain-GST fusion protein (human, UniProt P06241 81-142).
T3 construct: range 81-142; also called Fyn SH3
T3 sequence (P06241 81-142): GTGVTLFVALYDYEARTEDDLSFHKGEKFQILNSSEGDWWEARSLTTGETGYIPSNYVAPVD
Described as above.

In data set [8] the target is T4, human Hck (residues 77-137 of full-length kinase) SH3 domain-GST fusion protein (human, UniProt P08631 77-137).
T4 construct: range 77-137; also called Hck SH3
T4 sequence (P08631 77-137): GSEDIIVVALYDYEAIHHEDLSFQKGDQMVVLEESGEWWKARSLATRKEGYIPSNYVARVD
The description is as above.

Data set [9] addresses T1, human Lyn (residues 62-122) SH3 …. Description: fluorescence polarization, 50 nM labeled peptide, SH3-GST titrated; data above 50 micromolar target excluded from the fit.
The target of data set [10] is T4, human Hck (residues 77-137 of …). Described as above.

The term Kd denotes the constant that tells how readily two partners part at equilibrium. Read a low Kd as tighter binding.

No end group written: not given here.

B1: aPP^F20A (peptide)
chain: GPSQPTYPGDDAPVEDLIRAYDNLQQYLNVVTRHRY-NH2
notes: Synthetic aPP variant; entries are for its self-association (tetramer)
In [1], B1 registered a Kd of 0.076 nM. Moreover, in data set [2], the “lnKA (n = 4)” value came out at 23.3.

B2: aPP^Y7AP13SV14P (peptide)
chain: GPSQPTAPGDDASPEDLIRFYDNLQQYLNVVTRHRY-NH2
notes: Synthetic aPP variant with the proline switch; entries are for its self-association (monomer/dimer/tetramer)
In [3], B2 yielded a Kd of 530000 nM.

B3: pancreatic peptide YY (PYY) (peptide)
chain: not shown
modifications: C-terminal carboxamide
notes: Synthetic; entries are for its self-association
Molecule B3 showed an equilibrium dissociation constant (Kd) in [4] of 830000 nM. Moreover, the “lnKA (n = 2)” value in data set [2] is 7.09.

B4: aPP^Y7AP13VV14P (peptide)
chain: GPSQPTAPGDDAVPEDLIRFYDNLQQYLNVVTRHRY-NH2
notes: Synthetic aPP variant; entries are for its self-association (tetramer); also called aPP^Y7AP13W14P
In the case of B4, in [1], binding was put at a Kd of 0.00075 nM. Besides, in data set [2], the “lnKA (n = 4)” value is 27.9.

B5: aPP^Y7A (peptide)
chain: GPSQPTAPGDDAPVEDLIRFYDNLQQYLNVVTRHRY-NH2
notes: as for B1
B5 gave a Kd in data set [1] of 0.0039 nM. In [2], the “lnKA (n = 4)” value amounted to 26.3.

B6: PP2^Flu (designed binder)
chain: APPLPPRNRGDDAPVEDLIRFYDNLQQYLNVVTRHRYC
modifications: ends and bridges not checked; also: fluorescently labeled, site and dye not given here
notes: also called PP2 (fluorescently labeled)
As to B6, the equilibrium dissociation constant (Kd) in data set [5] is 3700 nM; in data set [6], 2700 nM; in [7] it was 14000 nM; in data set [8] it was 1300 nM.

B7: PP3^Flu (designed binder)
chain: APPLPPRNRPRDAPVEDLIRFYDNLQQYLNVVTRHRYC
modifications: ends and bridges not checked; also: fluorescently labeled, site and dye not given here
notes: also called PP3 (fluorescently labeled)
Consider B7, for which the Kd in data set [6] was 1430 nM; in [7], 2100 nM; in [9], 1800 nM; in data set [10], 880 nM.

B8: PP1^Flu (designed binder)
chain: APPLPPRNPGDDAPVEDLIRFYDNLQQYLNVVTRHRYC
modifications: ends and bridges not checked; also: fluorescently labeled, site and dye not given here
notes: also called PP1 (fluorescently labeled)
In the case of B8, the Kd worked out at 4900 nM in data set [5], 40000 nM in data set [6], 25000 nM in data set [7] and 3800 nM in data set [8].

B9: aPP^Y21A (peptide)
chain: GPSQPTYPGDDAPVEDLIRFADNLQQYLNVVTRHRY-NH2
notes: Synthetic aPP variant; entries are for its self-association (dimer)
B9 displayed a dissociation constant (Kd) in data set [4] of 1300 nM. The “lnKA (n = 2)” value in data set [2] was found to be 13.6.

B10: aPP^Y7AT6E (peptide)
chain: GPSQPEAPGDDAPVEDLIRFYDNLQQYLNVVTRHRY-NH2
notes: entries are for its self-association (tetramer); also called aPP^Y7AAT6E
B10 yielded a Kd in data set [1] of 0.0002 nM. Besides, the “lnKA (n = 4)” value in data set [2] was found to be 29.3.

B11: avian pancreatic polypeptide (aPP) (peptide)
chain: GPSQPTYPGDDAPVEDLIRFYDNLQQYLNVVTRHRY
modifications: ends and bridges not checked
notes: Bought from American Peptide Company; entries are for its self-association (dimer); also called wt aPP
Turning to B11, the dissociation constant (Kd) in data set [4] turned out to be 4100 nM. Further, the “lnKA (n = 2)” value in data set [2] is 12.4.

B12: aPP^Y7AQ25R (peptide)
chain: GPSQPTAPGDDAPVEDLIRFYDNLRQYLNVVTRHRY-NH2
notes: as for B1
B12 returned a Kd in data set [1] of 0.00018 nM. Besides, in data set [2], the “lnKA (n = 4)” value was 29.3.

Values taken from US20100273722A1 (YALE UNIVERSITY, published 2010).
